Data on three molecules can be found in patent US20150284762, “METHOD FOR PRODUCING PROTEIN-NUCLEIC ACID CONJUGATE, AND METHOD FOR DETECTING TARGET SUBSTANCE” (KYUSHU UNIVERSITY, NATIONAL UNIVERSITY CORPORATION, published 2015).

This series concerns the target thrombin (UniProt P00734;P00734 P00734:328-363,P00734:364-622). Briefly: ELONA.

B1: FITC-thrombin DNA aptamer with T15 linker (30 mer) (ssDNA)
DNA: GGTTGGTGTGGTTGGTTTTTTTTTTTTTTT
As to B1, the binding result is given as “binds”.

B2: (BAP)-(PEG)3-aptamer, single label (ssDNA)
DNA: GGTTGGTGTGGTTGGTTTTTTTTTTTTTTT
modifications: 3' single Z-QG-(PEG)3-ddUTP crosslinked to NK14-BAP
Consider B2, for which the binding result was “binds”.

B3: (BAP)-aptamer, single label (ssDNA)
DNA: GGTTGGTGTGGTTGGTTTTTTTTTTTTTTT
modifications: 3' single Z-QG-ddUTP crosslinked to NK14-BAP
Regarding B3, the binding result is “binds”.
